To fix the notation:
B1: glmS ribozyme (parent)
chain: AUAAAAGCGCCAGAACUACAGAAAUGUAGUUGACGAGGAGGAGGUUUAUCGAAUUUUCGGCGGAUGCCUCCAAA

Common to all, as to conditions: with glucosamine-6-phosphate
Data set [1] covers variants of B1. Description: kcat; higher = faster cleavage; RNA array. Summed up: (§1)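 kobs was derived by fitting per-tile medians to one- or two-exponential decays after normalising signals to baseline and to non-cleaving reference variants. Those signals came from barcoded ribozyme variants transcribed in situ by E. coli RNA polymerase on sequenced MiSeq chips, followed through a hybridised Cy3 probe at 37 °C and imaged over ~14 h. Glucosamine-6-phosphate (40 μM to 10 mM) in HEPES/KCl/Mg(OAc)2 buffer was flowed in. Weighted Michaelis–Menten fits across concentrations then gave kcat and KM.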

The variants in data set [2] derive from B1. Description: KM; higher = weaker cofactor use; RNA array. In short, it runs like this:
as §1

Variants of B1 are the subject of data set [3]. Description: self-cleavage kobs at 640 uM GlcN6P; higher = faster cleavage; RNA array. Summed up:
as §1

Variants of B1 are the subject of data set [4]. Description: self-cleavage kobs at 40 uM GlcN6P; higher = faster cleavage; RNA array. In short, it runs like this:
as §1

Data set [5] covers variants of B1. Description: self-cleavage kobs at 160 uM GlcN6P; higher = faster cleavage; RNA array. Summed up:
as §1

In data set [6] the parent is B1. Description: self-cleavage kobs at 10000 uM GlcN6P; higher = faster cleavage; RNA array. Summed up:
as §1

Variants of B1 are the subject of data set [7]. As to the kind of experiment: self-cleavage kobs at 2500 uM GlcN6P; higher = faster cleavage; RNA array. Summed up:
as §1

± gives the standard error. For some of these results: This sample holds only a part of the variants without activity. Some results are limits rather than exact numbers.

For orientation: kcat means the maximal rate divided by the concentration of active sites. The KM is the concentration of substrate that gives half-maximal velocity. As for C8U C71U, the kcat in the data set with glucosamine-6-phosphate [1] is under 1e-05 s⁻¹. Also, the KM with glucosamine-6-phosphate [2] worked out at 25 ± 11 µM. For the same variant, the “self-cleavage kobs at 640 uM GlcN6P” value with glucosamine-6-phosphate [3] was under 1e-05 s⁻¹.

Regarding C34G C71G, the kcat with glucosamine-6-phosphate [1] amounted to 2.07e-05 ± 5.7e-06 s⁻¹.

G41C U46C: the kcat with glucosamine-6-phosphate [1] worked out at 3.31e-05 ± 3.8e-06 s⁻¹. Also, the Michaelis constant (KM) with glucosamine-6-phosphate [2] came to 2440 ± 1200 µM. In addition, in the data set with glucosamine-6-phosphate [4], the “self-cleavage kobs at 40 uM GlcN6P” value is under 1e-05 s⁻¹. Further, the “self-cleavage kobs at 160 uM GlcN6P” value with glucosamine-6-phosphate [5] is under 1e-05 s⁻¹. Further, in the data set with glucosamine-6-phosphate [6], the “self-cleavage kobs at 10000 uM GlcN6P” value turned out to be 2.65e-05 ± 9.7e-06 s⁻¹.

For G44U G66A, the kcat with glucosamine-6-phosphate [1] was determined as 0.000401 ± 9.1e-05 s⁻¹. Moreover, the “self-cleavage kobs at 640 uM GlcN6P” value with glucosamine-6-phosphate [3] stood at 0.000153 ± 3.3e-05 s⁻¹. Besides, the “self-cleavage kobs at 2500 uM GlcN6P” value with glucosamine-6-phosphate [7] is 0.000236 ± 4.4e-05 s⁻¹. Besides, the “self-cleavage kobs at 10000 uM GlcN6P” value with glucosamine-6-phosphate [6] came out at 0.000438 ± 0.0001 s⁻¹.

Turning to U56G A64U, the kcat in the data set with glucosamine-6-phosphate [1] was 9.52e-05 ± 2.5e-05 s⁻¹. The “self-cleavage kobs at 160 uM GlcN6P” value in the data set with glucosamine-6-phosphate [5] was under 1e-05 s⁻¹. Besides, the “self-cleavage kobs at 2500 uM GlcN6P” value with glucosamine-6-phosphate [7] was found to be 3.01e-05 ± 1.5e-05 s⁻¹. Moreover, the “self-cleavage kobs at 10000 uM GlcN6P” value with glucosamine-6-phosphate [6] came to 6.57e-05 ± 1.9e-05 s⁻¹.

A15U A52C: in the data set with glucosamine-6-phosphate [1], the kcat is under 1e-05 s⁻¹. For the same variant, the KM in the data set with glucosamine-6-phosphate [2] was 537 ± 110 µM. Also, the “self-cleavage kobs at 40 uM GlcN6P” value with glucosamine-6-phosphate [4] was under 1e-05 s⁻¹. In the data set with glucosamine-6-phosphate [5], the “self-cleavage kobs at 160 uM GlcN6P” value is under 1e-05 s⁻¹. In the data set with glucosamine-6-phosphate [3], the “self-cleavage kobs at 640 uM GlcN6P” value was under 1e-05 s⁻¹.

Turning to A14C A39U, in the data set with glucosamine-6-phosphate [1], the kcat was 0.00308 ± 0.00063 s⁻¹. The KM in the data set with glucosamine-6-phosphate [2] amounted to 2440 ± 670 µM. Moreover, the “self-cleavage kobs at 40 uM GlcN6P” value with glucosamine-6-phosphate [4] was found to be 6.46e-05 ± 6.9e-06 s⁻¹. In addition, the “self-cleavage kobs at 160 uM GlcN6P” value with glucosamine-6-phosphate [5] worked out at 0.000162 ± 1.9e-05 s⁻¹. Also, the “self-cleavage kobs at 640 uM GlcN6P” value with glucosamine-6-phosphate [3] was 0.000605 ± 6.5e-05 s⁻¹. For the same variant, in the data set with glucosamine-6-phosphate [7], the “self-cleavage kobs at 2500 uM GlcN6P” value was determined as 0.00174 ± 0.00021 s⁻¹. Further, the “self-cleavage kobs at 10000 uM GlcN6P” value in the data set with glucosamine-6-phosphate [6] is 0.00242 ± 0.00026 s⁻¹.

For G7A C50A, the kcat in the data set with glucosamine-6-phosphate [1] is under 1e-05 s⁻¹. The “self-cleavage kobs at 40 uM GlcN6P” value with glucosamine-6-phosphate [4] is under 1e-05 s⁻¹. Further, the “self-cleavage kobs at 160 uM GlcN6P” value with glucosamine-6-phosphate [5] was under 1e-05 s⁻¹. The “self-cleavage kobs at 2500 uM GlcN6P” value with glucosamine-6-phosphate [7] was under 1e-05 s⁻¹.

For the variant A33U C58A, the kcat with glucosamine-6-phosphate [1] is under 1e-05 s⁻¹. The “self-cleavage kobs at 160 uM GlcN6P” value with glucosamine-6-phosphate [5] is under 1e-05 s⁻¹. In addition, the “self-cleavage kobs at 640 uM GlcN6P” value with glucosamine-6-phosphate [3] was under 1e-05 s⁻¹.

Regarding G51A C71U, the kcat with glucosamine-6-phosphate [1] was under 1e-05 s⁻¹. For the same variant, in the data set with glucosamine-6-phosphate [4], the “self-cleavage kobs at 40 uM GlcN6P” value was under 1e-05 s⁻¹.

For the variant G66C C68U C71G, in the data set with glucosamine-6-phosphate [1], the kcat was under 1e-05 s⁻¹. Also, the “self-cleavage kobs at 160 uM GlcN6P” value in the data set with glucosamine-6-phosphate [5] is under 1e-05 s⁻¹.

As to A14G C67G C71U, in the data set with glucosamine-6-phosphate [1], the kcat amounted to 5.11e-05 ± 1.2e-05 s⁻¹. The “self-cleavage kobs at 640 uM GlcN6P” value with glucosamine-6-phosphate [3] worked out at 9.52e-05 ± 3.5e-05 s⁻¹. Also, the “self-cleavage kobs at 2500 uM GlcN6P” value with glucosamine-6-phosphate [7] stood at 5.17e-05 ± 1.4e-05 s⁻¹. The “self-cleavage kobs at 10000 uM GlcN6P” value in the data set with glucosamine-6-phosphate [6] stood at 4.43e-05 ± 1.3e-05 s⁻¹.

Take G13U C67G: the kcat in the data set with glucosamine-6-phosphate [1] was under 1e-05 s⁻¹. Besides, the “self-cleavage kobs at 40 uM GlcN6P” value with glucosamine-6-phosphate [4] was under 1e-05 s⁻¹.

Take G9A U49A A52G: the kcat with glucosamine-6-phosphate [1] is under 1e-05 s⁻¹.

As for A33U A39G, the kcat with glucosamine-6-phosphate [1] was 0.00016 ± 3.8e-05 s⁻¹. Besides, the “self-cleavage kobs at 160 uM GlcN6P” value in the data set with glucosamine-6-phosphate [5] is under 1e-05 s⁻¹. Further, the “self-cleavage kobs at 2500 uM GlcN6P” value with glucosamine-6-phosphate [7] stood at 6.65e-05 ± 2.8e-05 s⁻¹. Also, the “self-cleavage kobs at 10000 uM GlcN6P” value in the data set with glucosamine-6-phosphate [6] worked out at 0.000108 ± 1.3e-05 s⁻¹.

On to G40U U69G, for which, in the data set with glucosamine-6-phosphate [1], the kcat is under 1e-05 s⁻¹. The KM in the data set with glucosamine-6-phosphate [2] was 1720 ± 260 µM. Further, the “self-cleavage kobs at 40 uM GlcN6P” value with glucosamine-6-phosphate [4] is under 1e-05 s⁻¹. In addition, the “self-cleavage kobs at 160 uM GlcN6P” value with glucosamine-6-phosphate [5] was under 1e-05 s⁻¹. The “self-cleavage kobs at 640 uM GlcN6P” value with glucosamine-6-phosphate [3] is under 1e-05 s⁻¹.

As to A48U U65C, in the data set with glucosamine-6-phosphate [1], the kcat amounted to 4.55e-05 ± 6.5e-06 s⁻¹. Besides, the “self-cleavage kobs at 40 uM GlcN6P” value with glucosamine-6-phosphate [4] was under 1e-05 s⁻¹. Moreover, in the data set with glucosamine-6-phosphate [7], the “self-cleavage kobs at 2500 uM GlcN6P” value is 4.16e-05 ± 1.4e-05 s⁻¹. Further, the “self-cleavage kobs at 10000 uM GlcN6P” value with glucosamine-6-phosphate [6] was 3.92e-05 ± 1.5e-05 s⁻¹.

Regarding A15G A39C, the kcat with glucosamine-6-phosphate [1] came out at 0.0119 ± 0.0054 s⁻¹. In addition, in the data set with glucosamine-6-phosphate [4], the “self-cleavage kobs at 40 uM GlcN6P” value was determined as 0.000149 ± 1.5e-05 s⁻¹. Moreover, in the data set with glucosamine-6-phosphate [5], the “self-cleavage kobs at 160 uM GlcN6P” value is 0.000242 ± 6.6e-05 s⁻¹. In addition, the “self-cleavage kobs at 640 uM GlcN6P” value with glucosamine-6-phosphate [3] amounted to 0.0011 ± 0.00014 s⁻¹. The “self-cleavage kobs at 2500 uM GlcN6P” value with glucosamine-6-phosphate [7] stood at 0.00446 ± 0.00072 s⁻¹. Moreover, in the data set with glucosamine-6-phosphate [6], the “self-cleavage kobs at 10000 uM GlcN6P” value amounted to 0.00811 ± 0.00088 s⁻¹.

Turning to A14G C50G, in the data set with glucosamine-6-phosphate [1], the kcat amounted to 4.1e-05 ± 7.6e-06 s⁻¹. In the data set with glucosamine-6-phosphate [7], the “self-cleavage kobs at 2500 uM GlcN6P” value was determined as 4.52e-05 ± 2e-05 s⁻¹.

Turning to U31G C58G, the kcat with glucosamine-6-phosphate [1] was determined as 0.000125 ± 1.3e-05 s⁻¹. The KM with glucosamine-6-phosphate [2] turned out to be 1100 ± 400 µM. The “self-cleavage kobs at 640 uM GlcN6P” value in the data set with glucosamine-6-phosphate [3] was found to be 5.51e-05 ± 1.3e-05 s⁻¹. The “self-cleavage kobs at 2500 uM GlcN6P” value with glucosamine-6-phosphate [7] is 7.65e-05 ± 1.2e-05 s⁻¹. In the data set with glucosamine-6-phosphate [6], the “self-cleavage kobs at 10000 uM GlcN6P” value amounted to 0.000119 ± 1.3e-05 s⁻¹.

(Values after the supplement of paper PMC7125110.)
